Test results from patent US20230406935A1 (F STAR THERAPEUTICS, published 2023).
Numbering of substitutions follows the chain as printed.

B1: Fcab FS17-33-116 with LALA mutation (designed binder)
chain: TCPPCPAPEAAGGPSVFLFPPKPKDTLMISRTPEVTCVVVDVSHEDPEVKFNWYVDGVEVHNAKTKPREEQYNSTYRVVSVLTVLHQDWLNGKEYKCKVSNKALPAPIEKTISKAKGQPREPQVYTLPPSRDESGYWVSLTCLVKGFYPSDIVVEWESNGEPQYWAKTTPPVLDSDGSFFLYSKLTVSNWRWQMDDFSCSVMHEALHNHYTQKSLSLSPGK
B2: Fcab FS17-33-334 with LALA mutation (designed binder)
chain: B1 chain with V153A, M194L
B3: Fcab FS17-33-289 with LALA mutation (designed binder)
chain: B1 chain with M194L
B4: Fcab FS17-33-288 with LALA mutation (designed binder)
chain: B1 chain with M194I
B5: Fcab FS17-33-296 with LALA mutation (designed binder)
chain: B1 chain with M194V
B6: Fcab FS17-33-289 (designed binder)
chain: B1 chain with A10L, A11L, M194L
B7: Fcab FS17-33-296 (designed binder)
chain: B1 chain with A10L, A11L, M194V
B8: Fcab FS17-33-116 (designed binder)
chain: B1 chain with A10L, A11L
B9: FS17-33-289AA/HelD1.3 mock mAb^2 (bispecific antibody, human IgG1, kappa, L234A L235A)
heavy: QVQLQESGPGLVRPSQTLSLTCTVSGSTFSGYGVNWVRQPPGRGLEWIGMIWGDGNTDYNSALKSRVTMLVDTSKNQFSLRLSSVTAADTAVYYCARERDYRLDYWGQGSLVTVSSASTKGPSVFPLAPSSKSTSGGTAALGCLVKDYFPEPVTVSWNSGALTSGVHTFPAVLQSSGLYSLSSVVTVPSSSLGTQTYICNVNHKPSNTKVDKKVEPKSCDKTHTCPPCPAPEAAGGPSVFLFPPKPKDTLMISRTPEVTCVVVDVSHEDPEVKFNWYVDGVEVHNAKTKPREEQYNSTYRVVSVLTVLHQDWLNGKEYKCKVSNKALPAPIEKTISKAKGQPREPQVYTLPPSRDESGYWVSLTCLVKGFYPSDIVVEWESNGEPQYWAKTTPPVLDSDGSFFLYSKLTVSNWRWQLDDFSCSVMHEALHNHYTQKSLSLSPGK
light: DIQMTQSPASLSASVGETVTITCRASGNIHNYLAWYQQKQGKSPQLLVYNAKTLADGVPSRFSGSGSGTQYSLKINSLQPEDFGSYYCQHFWSTPRTFGGGTKLEIKRTVAAPSVFIFPPSDEQLKSGTASVVCLLNNFYPREAKVQWKVDNALQSGNSQESVTEQDSKDSTYSLSSTLTLSKADYEKHKVYACEVTHQGLSSPVTKSFNRGEC
notes: also called F17-33-289AA/HelD1.3; F17-33-289AA/HELD1.3
B10: FS17-33-451/HelD1.3 mock mAb^2 (without LALA) (bispecific antibody, human IgG1, kappa)
heavy: QVQLQESGPGLVRPSQTLSLTCTVSGSTFSGYGVNWVRQPPGRGLEWIGMIWGDGNTDYNSALKSRVTMLVDTSKNQFSLRLSSVTAADTAVYYCARERDYRLDYWGQGSLVTVSSASTKGPSVFPLAPSSKSTSGGTAALGCLVKDYFPEPVTVSWNSGALTSGVHTFPAVLQSSGLYSLSSVVTVPSSSLGTQTYICNVNHKPSNTKVDKKVEPKSCDKTHTCPPCPAPELLGGPSVFLFPPKPKDTLMISRTPEVTCVVVDVSHEDPEVKFNWYVDGVEVHNAKTKPREEQYNSTYRVVSVLTVLHQDWLNGKEYKCKVSNKALPAPIEKTISKAKGQPREPQVYTLPPSRDEEGYWVSLTCLVKGFYPSDIAVEWESNGEPQYWAKTTPPVLDSDGSFFLYSKLTVSNWRWQLDDVFSCSVMHEALHNHYTQKSLSLSPGK
light: B9 light
B11: FS17-33-296/HelD1.3 mock mAb^2 (without LALA) (bispecific antibody, human IgG1, kappa)
heavy: B9 heavy with A233L, A234L, L417V
light: B9 light
B12: FS17-33-449AA/HelD1.3 mock mAb^2 (bispecific antibody, human IgG1, kappa, L234A L235A)
heavy: B10 heavy with L233A, L234A, E357T
light: B9 light
B13: FS17-33-449/HelD1.3 mock mAb^2 (without LALA) (bispecific antibody, human IgG1, kappa)
heavy: B10 heavy with E357T
light: B9 light
B14: FS17-33-289/HelD1.3 mock mAb^2 (without LALA) (bispecific antibody, human IgG1, kappa)
heavy: B9 heavy with A233L, A234L
light: B9 light
B15: FS17-33-296AA/HelD1.3 mock mAb^2 (bispecific antibody, human IgG1, kappa, L234A L235A)
heavy: B9 heavy with L417V
light: B9 light
notes: also called F17-33-296AA/HelD1.3; F17-33-296AA/HELD1.3
B16: FS17-33-288AA/HelD1.3 mock mAb^2 (bispecific antibody, human IgG1, kappa, L234A L235A)
heavy: B9 heavy with L417I
light: B9 light
notes: also called F17-33-288AA/HelD1.3; F17-33-288AA/HELD1.3
B17: FS17-33-334AA/HelD1.3 mock mAb^2 (bispecific antibody, human IgG1, kappa, L234A L235A)
heavy: B9 heavy with V376A
light: B9 light
B18: FS17-33-451AA/HelD1.3 mock mAb^2 (bispecific antibody, human IgG1, kappa, L234A L235A)
heavy: B10 heavy with L233A, L234A
light: B9 light
notes: also called F17-33-451AA/HelD1.3; F17-33-451AA/HELD1.3
B19: FS17-33-451AA/MSL109 mock mAb^2 (bispecific antibody, human IgG1, kappa, L234A L235A)
heavy: EEQVLESGGGLVKPGGSLRLSCAASGFTFSPYSVFWVRQAPGKGLEWVSSINSDSTYKYYADSVKGRFTISRDNAENSIFLQMNSLRAEDTAVYYCARDRSYYAFSSGSLSDYYYGLDVWGQGTTVIVSSASTKGPSVFPLAPSSKSTSGGTAALGCLVKDYFPEPVTVSWNSGALTSGVHTFPAVLQSSGLYSLSSVVTVPSSSLGTQTYICNVNHKPSNTKVDKKVEPKSCDKTHTCPPCPAPEAAGGPSVFLFPPKPKDTLMISRTPEVTCVVVDVSHEDPEVKFNWYVDGVEVHNAKTKPREEQYNSTYRVVSVLTVLHQDWLNGKEYKCKVSNKALPAPIEKTISKAKGQPREPQVYTLPPSRDEEGYWVSLTCLVKGFYPSDIAVEWESNGEPQYWAKTTPPVLDSDGSFFLYSKLTVSNWRWQLDDVFSCSVMHEALHNHYTQKSLSLSPGK
light: DIVMTQSPLSLSVTPGEPASISCRSSQSLLHTNGYNYLDWYVQKPGQSPQLLIYLASNRASGVPDRFSGSGSGTDFTLKISRVETEDVGVYYCMQALQIPRTFGQGTKVEIKRTVAAPSVFIFPPSDEQLKSGTASVVCLLNNFYPREAKVQWKVDNALQSGNSQESVTEQDSKDSTYSLSSTLTLSKADYEKHKVYACEVTHQGLSSPVTKSFNRGEC
notes: also called FS17-33-451AA/MSL109 (parent 2)
B20: FS17-33-548AA/MSL109 (bispecific antibody, human IgG1, kappa, L234A L235A)
heavy: B19 heavy with D432G
light: B19 light
B21: FS17-33-539AA/MSL109 (bispecific antibody, human IgG1, kappa, L234A L235A)
heavy: B19 heavy with E371T, D432G, H445R
light: B19 light

Legend:
Assay in all cases: cell-based or functional assay
[1] = molecular target: T1, Human PD-L1 expressed on cells (human, UniProt Q9NZQ7 19-290)
T1 sequence (Q9NZQ7 19-290 limits assumed): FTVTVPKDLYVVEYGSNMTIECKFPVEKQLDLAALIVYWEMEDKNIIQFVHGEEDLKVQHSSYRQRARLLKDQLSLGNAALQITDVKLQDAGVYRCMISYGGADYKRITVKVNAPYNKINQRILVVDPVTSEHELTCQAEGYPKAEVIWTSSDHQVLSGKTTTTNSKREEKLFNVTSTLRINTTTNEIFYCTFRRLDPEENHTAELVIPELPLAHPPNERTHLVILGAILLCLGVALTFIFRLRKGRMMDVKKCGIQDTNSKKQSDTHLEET

[2] = molecular target: T1, Human PD-L1 expressed on cells; remark: listed apart in the source
[3] = molecular target: T1, Human PD-L1 expressed on cells; remark: listed apart in the source

Row | Binder | SEB assay (IFNγ release) EC50 [1] | other results
1 | B1 | 0.1 nM | –
2 | B2 | 0.144 nM | –
3 | B3 | 0.108 nM | –
4 | B4 | 0.0899 nM | –
5 | B5 | 0.124 nM | –
6 | B6 | 0.0886 nM | –
7 | B7 | 0.0869 nM | –
8 | B8 | – | SEB assay EC50 [2]: 0.0753 nM
9 | B9 | 0.566 nM | –
10 | B10 | 0.852 nM | –
11 | B11 | 1.71 nM | –
12 | B12 | 0.55 nM | –
13 | B13 | 0.644 nM | –
14 | B14 | 0.969 nM | –
15 | B15 | 1.77 nM | –
16 | B16 | 1.02 nM | –
17 | B17 | 0.761 nM | –
18 | B18 | 1.12 nM | –
19 | B19 | – | SEB EC50 [3]: 1.11 nM
20 | B20 | – | SEB EC50 [3]: 3.21 nM
21 | B21 | – | SEB EC50 [3]: 0.97 nM
